Broadly, the Kd is the equilibrium constant for the complex coming apart. As usually defined, the koff is the first-order rate constant of dissociation. The EC50 (read off the curve) is the concentration needed to bring the measured effect to its halfway point.

The target in experiment [1] is T1, human FGFR4 (recombinant, construct not stated; SPR, FGFR4 ELISA, receptor-binding assay) (human, UniProt P22455 22-369, limits assumed).
T1 construct: Whole exemplary entry named
T1 sequence: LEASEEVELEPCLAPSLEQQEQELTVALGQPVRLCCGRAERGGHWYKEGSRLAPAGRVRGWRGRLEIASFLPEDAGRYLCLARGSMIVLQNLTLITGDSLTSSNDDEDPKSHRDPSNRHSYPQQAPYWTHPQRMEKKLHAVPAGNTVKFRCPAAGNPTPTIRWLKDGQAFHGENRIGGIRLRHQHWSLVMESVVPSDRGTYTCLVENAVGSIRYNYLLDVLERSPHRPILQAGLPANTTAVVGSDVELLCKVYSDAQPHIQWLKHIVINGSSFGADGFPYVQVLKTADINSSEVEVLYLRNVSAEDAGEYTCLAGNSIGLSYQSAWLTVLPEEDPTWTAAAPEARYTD
In words: SPR (BIAcore-2000), antibody immobilized, human FGFR4 as analyte. On the procedure:
(§1) Affinity determinations were performed by surface plasmon resonance using a BIAcore™-2000. Approximately 50 RU of hLD1.vB IgG was immobilized in 10 mM Sodium Acetate pH 4.8 on a CM5 sensor chip and serial 2-fold dilutions of the FGFR4 (0.48-1000 nM) in PBST were injected at a flow rate of 30 μl/min. Each sample was analyzed with 4-minute association and 10-minute dissociation. After each injection the chip was regenerated using 10 mM glycine pH 1.7. Binding response was corrected by subtracting the RU from a flow cell with an irrelevant IgG immobilized at similar density. A 1:1 Languir model of simultaneous fitting of kon and koff was used for kinetics analysis.
TABLE 3 Binding Kinetics of anti-FGFR4 antibody variants. The association and dissociation rates of human FGFR4 binding to immobilized antibody variants were measured using surface plasmon resonance.
Background: SPR reads the build-up and loss of mass on a sensor chip optically.

For experiment [2], the target named is T1, human FGFR4 (recombinant, construct not …). In words: surface plasmon resonance, compared with chLD1. On the procedure: as §1
As a first step in the humanization of LD1, the variable light and heavy domains of chLD1 were aligned with the human kappa I (huKI) and human VH subgroup III (huIII) variable domain frameworks used in trastuzumab (FIG. 10). Hypervariable regions from chLD1 were grafted into these human variable frameworks to generate a direct CDR-graft (hLD1.vA)^{15, 16}. […] Substitution of mouse sequence at various vernier positions in both the variable light and heavy domains was explored as a means to improve binding and led to the identification of three important mouse vernier positions in the LC: P44F, L46I and Y49S.

Experiment [3] has the same target. In words: FGFR4 ELISA (immobilized FGFR4), O.D. 450 nm against IgG concentration. In general terms: In an ELISA, binding on a coated surface is turned into a signal by an enzyme label.
For experiment [4], the target named is T2, mouse complement C3 (ca. 37 kDa fragment, C3d, from mouse plasma) (mouse, UniProt P01027 1002-1303, limits assumed).
T2 construct: Native protein of plasma/serum, pulled down as a ca. 37 kDa band; also called mouse C3; mouse C3d
In words: immunoprecipitation from NCR nude mouse plasma, SDS-PAGE.

Experiment [5] deals with T3, cynomolgus monkey FGFR4 (SPR of FIG. 2B, construct not stated) (cynomolgus monkey).
T3 construct: also called cynomolgus FGFR4
In words: surface plasmon resonance (table row 'Cynomolgus', column 'Kd (nM)').

Experiment [6] deals with human FGFR4-FGFR1 chimeric construct on BaF3 cells (human, UniProt P11362 398-820, limits assumed). In words: cell-based or functional assay.
In experiment [7] the target is T4, cynomolgus FGFR4-Fc chimeric protein (cynomolgus monkey).
T4 construct: also called cFGFR4
In words: solid phase binding assay, LD1 on immobilized cFGFR4-Fc, OD 450 nm.

T2 sequence (P01027 1002-1303 limits assumed): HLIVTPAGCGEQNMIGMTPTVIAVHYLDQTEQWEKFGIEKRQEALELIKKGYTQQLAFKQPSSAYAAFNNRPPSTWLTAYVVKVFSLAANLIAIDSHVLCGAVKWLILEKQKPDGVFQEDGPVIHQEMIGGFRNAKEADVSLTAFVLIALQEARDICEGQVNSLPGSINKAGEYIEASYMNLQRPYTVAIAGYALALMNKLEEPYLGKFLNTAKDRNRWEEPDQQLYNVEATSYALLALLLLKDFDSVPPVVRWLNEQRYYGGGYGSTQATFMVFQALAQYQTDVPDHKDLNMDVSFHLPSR

B1: hLD1.vB (humanized LD1 with light chain P44F, L46I, Y49S) (antibody, V domains shown)
VH: EVQLVESGGGLVQPGGSLRLSCAASGYTFTNHWMNWVRQAPGKGLEWVGMIHPSDSETTLDQKFKDRFTISADTSKNTAYLQMNSLRAEDTAVYYCTRGDISLFDYWGQGTLVTVSS
VL: DIQMTQSPSSLSASVGDRVTITCRTSQDISNFLNWYQQKPGKAFKILISYTSRLHSGVPSRFSGSGSGTDFTLTISSLQPEDFATYYCQQGNALPYTFGQGTKVEIK
As for B1, in experiment [1], the Kd was 970 pM and the off-rate (koff) amounted to 0.00028 s⁻¹. The “fold weaker binding against chLD1” value in experiment [2] was approximately 2 fold. In addition, the “EC50 (read off the curve)” value in experiment [3] is approximately 4 µg/mL.

B2: hLD1.v22 (humanized and affinity matured LD1) (antibody, V domains shown)
VH: EVQLVESGGGLVQPGGSLRLSCAASGYTFTNHWMNWVRQAPGKGLEWVGMILPVDSETTLEQKFKDRFTISADTSKNTAYLQMNSLRAEDTAVYYCTRGDISLFDYWGQGTLVTVSS
VL: DIQMTQSPSSLSASVGDRVTITCRTSQDISNFLNWYQQKPGKAFKILISYTSRLHSGVPSRFSGSGSGTDFTLTISSLQPEDFATYYCQQGNALPYTFGQGTKVEIKR
For B2, the binding result in experiment [4] is “no binding”. For the same molecule, in experiment [1], the Kd came out at 43 pM and the koff was found to be 3.9e-05 s⁻¹.

B3: chimeric LD1 (murine LD1 variable domains with human kappa and human IgG1 constant domains) (antibody, V domains shown)
VH: EVQLQQPGAVLVRPGTSVKLSCKASGYTFTNHWMNWVKQRPGQGLEWIGMIHPSDSETTLDQKFKDKATLTVDKSSSTAYMQLNRPTSEDSAVYYCTRGDISLFDYWGQGTTVTVSS
VL: DIQMTQTTSSLSASLGDRVTITCRTSQDISNFLNWYQQKPDGTFKILISYTSRLHSGVPSRFSGSGSGTDYSLTISTLEQEDFATYFCQQGNALPYTFGGGTKLEIE
notes: also called chLD1; ChLD1
Take B3: the binding result in experiment [4] is reported as “no binding”. In experiment [5], the Kd amounted to 800 pM. Also, the “IC50 of inhibition of proliferation of BaF3/FGFR4/R1 cells in the presence of 5 nM FGF1” value in experiment [6] was 17400 pM. For the same molecule, the concentration giving a half-maximal response (EC50 (read off the curve)) in experiment [7] was approximately 0.04 µg/mL.

The values above are taken from patent US20140037624A1 (Genentech, published 2014).
